This is an account of results in article PMC11911400, “Mechanism of ASF1 engagement by CDAN1” (Nature Communications, 2025).

The stoichiometry N is the number of molecules, sites or subunits per partner or assembly.

B2: FLAG-tagged CDIN1 (F-CDIN1) (natural protein, UniProt Q9Y2V0 1-281, looked up)
chain: MILTKAQYDEIAQCLVSVPPTRQSLRKLKQRFPSQSQATLLSIFSQEYQKHIKRTHAKHHTSEAIESYYQRYLNGVVKNGAAPVLLDLANEVDYAPSLMARLILERFLQEHEETPPSKSIINSMLRDPSQIPDGVLANQVYQCIVNDCCYGPLVDCIKHAIGHEHEVLLRDLLLEKNLSFLDEDQLRAKGYDKTPDFILQVPVAVEGHIIHWIESKASFGDECSHHAYLHDQFWSYWNRFGPGLVIYWYGFIQELDCNRERGILLKACFPTNIVTLCHSIA
notes: C15orf41); cDNA synthesized by IDT; source: Expi293, transiently transfected, in lysate and purified in complexes (anti-FLAG, Strep-Tactin); not shown: 3xFLAG, N-terminal, kept
B3: Strep-tagged CDAN1 (ST-CDAN1), wildtype (natural protein, human)
chain: MAAVLESLLREEVSVAAVVRWIARSTQGSEDNAGEAAALSSLRALRKEFVPFLLNFLREQSSRVLPQGPPTPAKTPGASAALPGRPGGPPRGSRGARSQLFPPTEAQSTAAEAPLARRGGRRRGPGPARERGGRGLEEGVSGESLPGAGGRRLRGSGSPSRPSLTLSDPPNLSNLEEFPPVGSVPPGPTGTKPSRRINPTPVSEERSLSKPKTCFTSPPISCVPSSQPSALDTSPWGLGLPPGCRSLQEEREMLRKERSKQLQQSPTPTCPTPELGSPLPSRTGSLTDEPADPARVSSRQRLELVALVYSSCIAENLVPNLFLELFFVFQLLTARRMVTAKDSDPELSPAVLDSLESPLFQSIHDCVFFAVQVLECHFQVLSNLDKGTLKLLAENERLLCFSPALQGRLRAAYEGSVAKVSLVMPPSTQAVSFQPETDNRANFSSDRAFHTFKKQRDVFYEVLREWEDHHEEPGWDFEKGLGSRIRAMMGQLSAACSHSHFVRLFQKQLLQMCQSPGGAGGTVLGEAPDVLSMLGADKLGRLWRLQERLMAPQSSGGPCPPPTFPGCQGFFRDFILSASSFQFNQHLMDSLSLKIQELNGLALPQHEPNDEDGESDVDWQGERKQFAVVLLSLRLLAKFLGFVAFLPYRGPEPPPTGELQDSILALRSQVPPVLDVRTLLQRGLQARRAVLTVPWLVEFLSFADHVVPLLEYYRDIFTLLLRLHRSLVLSQESEGKMCFLNKLLLLAVLGWLFQIPTVPEDLFFLEEGPSYAFEVDTVAPEHGLDNAPVVDQQLLYTCCPYIGELRKLLASWVSGSSGRSGGFMRKITPTTTTSLGAQPSQTSQGLQAQLAQAFFHNQPPSLRRTVEFVAERIGSNCVKHIKATLVADLVRQAESLLQEQLVTQGEEGGDPAQLLEILCSQLCPHGAQALALGREFCQRKSPGAVRALLPEETPAAVLSSAENIAVGLATEKACAWLSANITALIRREVKAAVSRTLRAQGPEPAARGERRGCSRACEHHAPLPSHLISEIKDVLSLAVGPRDPDEGVSPEHLEQLLGQLGQTLRCRQFLCPPAEQHLAKCSVELASLLVADQIPILGPPAQYRLERGQARRLLHMLLSLWKEDFQGPVPLQLLLSPRNVGLLADTRPREWDLLLFLLRELVEKGLMGRMEIEACLGSLHQAQWPGDFAEELATLSNLFLAEPHLPEPQLRACELVQPNRGTVLAQS
notes: Codanin-1 (CDAN1), human, 1227 residues; cDNA from Horizon Discovery/Dharmacon, its point mutation S421F corrected; same construct used in Expi293 and in Flp-In 293 T-REx cells; dimer by SEC-MALS and cryo-EM; also called Strep-CDAN1; WT CDAN1; source: Expi293, transiently transfected, in lysate and purified in complexes (anti-FLAG, Strep-Tactin); Flp-In 293 T-REx, transiently transfected, in …

The target of series [1] is B2. In words: cryo-EM structure; purified ST-CDAN1C:F-CDIN1 (C:C) complex, cross-linked with BS3, 0.78 mg/mL; ~6 Å reconstruction, no model built. Conditions: both partners purified.
In series [2] the target is B3. In words: SEC-MALS; 200 µg of each purified complex at 5 µM on SRT SEC-300 column, PBS pH 7.4 with 1 mM DTT; DAWN HELEOS II; dn/dc 0.185. Conditions: both partners purified. In general terms: SEC sorts molecules by how far they enter the pores of the column.
Series [3] deals with the molecule itself. The series is described as above.
Series [4] deals with the molecule itself. In words: cryo-EM structure; tandem-purified C:C:A complex cross-linked with 250 µM BS3, 1 mg/mL; single-particle cryo-EM, 3.0 to 3.5 Å.

B1: Strep-CDAN1C (CDAN1 MA3 domain, residues 1008-1227) (domain or fragment, human, UniProt Q8IWY9 1008-1227, looked up)
chain: GERRGCSRACEHHAPLPSHLISEIKDVLSLAVGPRDPDEGVSPEHLEQLLGQLGQTLRCRQFLCPPAEQHLAKCSVELASLLVADQIPILGPPAQYRLERGQARRLLHMLLSLWKEDFQGPVPLQLLLSPRNVGLLADTRPREWDLLLFLLRELVEKGLMGRMEIEACLGSLHQAQWPGDFAEELATLSNLFLAEPHLPEPQLRACELVQPNRGTVLAQS
notes: also called ST-CDAN1C; CDAN1 C-term; source: Expi293, transiently transfected, purified in complex with F-CDIN1 (anti-FLAG, Strep-Tactin); not shown: 3xStrep-II-TEV, N-terminal, kept
B1: in series [1], the binding result was “binds”.
In the case of B2, the “stoichiometry N” value in series [2] was 2 CDIN1 per two CDAN1.
For the molecule B3, the “stoichiometry N” value in series [3] was 2 CDAN1 per complex; in series [4], 2.
